Results on one molecule are retold here after US20240209099A1 (SUZHOU TRANSCENTA THERAPEUTICS, published 2024).

The target of assay [1] is T1, Recombinant Human VEGFR2/KDR Protein, His tag (hVEGFR2-his) (human, UniProt P35968 20-764).
T1 construct: Expressed in HEK293, bought from ACRO Biosystems; also called human VEGFR2-his; Human VEGFR2/KDR-His
As to the kind of experiment: SPR (Biacore), antibody captured by anti-Fc, antigen 2.5-80 nM. The essentials:
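Human or mouse Fc-captured antibody (200–300 RU) on anti-Fc CM5 surface; antigen injected at 2.5–80 nM in HBS-EP pH 7.4 with 180 s association. Reference-cell-subtracted sensorgrams; regeneration with glycine pH 1.5.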

The target of assay [2] is T2, human VEGFR2 on HUVEC cells (human, UniProt P35968 20-1356).
T2 construct: also called hVEGFR2 on HUVEC
As to the kind of experiment: flow cytometry on HUVEC cells, MFI, anti-human IgG (H+L)-PE. The method, then: Same methods with Example 11. Briefly, Log phase HUVEC cells were collected and added to each tube. Then 100 μl/tube serial diluted humanized antibodies in FACS buffer were added and kept at 4° C. for 1 hr. Binding of antibodies to HUVEC was detected by PE signal of the 2nd antibody (anti-hIgG (H+L)-PE), which was added after the 1st antibodies. (see FIG. 15).

B1: 54-H2L1 (humanized Mab54) (antibody, human IgG1, V domains shown)
VH: EVQLVESGGGLVKPGGSLRLSCAASGFTFSMYGMSWVRQAPGKRLEWVASISIGGSYTYYADSVKGRFTISRDNAKNTLYLQMNSLRAEDTAVYYCARELDGNYDYWGQGTTLTVSS
VL: DIVITQDELSLPVTFGESVSISCRSSKSLLYKDGKTYLNWFLQRPGQSPQLLIYLMSTRASGVSDRFSGSGSGTDFTLKISRVEAEDVGIYYCQQLVEYPFTFGSGTKLEIK
notes: also called 54-H2L1 (CHO); humanized 54 variant H2L1
Turning to B1, in assay [1], the Kd is 2.51 nM, the off-rate constant (koff) turned out to be 0.000138 s⁻¹ and the kon was 54800 M⁻¹ s⁻¹. The “EC50 (read off the curve)” value in assay [2] was about 0.3 µg/mL.
